Data on two substances can be found in paper PMC3785576.

The experiment has as its target Bovine dermal collagen type I (bovine) (UniProt P02453). The experiment is described as follows: ELISA.
Sequence of UniProt P02453 (P02453 162-1217, chain 1 of 2): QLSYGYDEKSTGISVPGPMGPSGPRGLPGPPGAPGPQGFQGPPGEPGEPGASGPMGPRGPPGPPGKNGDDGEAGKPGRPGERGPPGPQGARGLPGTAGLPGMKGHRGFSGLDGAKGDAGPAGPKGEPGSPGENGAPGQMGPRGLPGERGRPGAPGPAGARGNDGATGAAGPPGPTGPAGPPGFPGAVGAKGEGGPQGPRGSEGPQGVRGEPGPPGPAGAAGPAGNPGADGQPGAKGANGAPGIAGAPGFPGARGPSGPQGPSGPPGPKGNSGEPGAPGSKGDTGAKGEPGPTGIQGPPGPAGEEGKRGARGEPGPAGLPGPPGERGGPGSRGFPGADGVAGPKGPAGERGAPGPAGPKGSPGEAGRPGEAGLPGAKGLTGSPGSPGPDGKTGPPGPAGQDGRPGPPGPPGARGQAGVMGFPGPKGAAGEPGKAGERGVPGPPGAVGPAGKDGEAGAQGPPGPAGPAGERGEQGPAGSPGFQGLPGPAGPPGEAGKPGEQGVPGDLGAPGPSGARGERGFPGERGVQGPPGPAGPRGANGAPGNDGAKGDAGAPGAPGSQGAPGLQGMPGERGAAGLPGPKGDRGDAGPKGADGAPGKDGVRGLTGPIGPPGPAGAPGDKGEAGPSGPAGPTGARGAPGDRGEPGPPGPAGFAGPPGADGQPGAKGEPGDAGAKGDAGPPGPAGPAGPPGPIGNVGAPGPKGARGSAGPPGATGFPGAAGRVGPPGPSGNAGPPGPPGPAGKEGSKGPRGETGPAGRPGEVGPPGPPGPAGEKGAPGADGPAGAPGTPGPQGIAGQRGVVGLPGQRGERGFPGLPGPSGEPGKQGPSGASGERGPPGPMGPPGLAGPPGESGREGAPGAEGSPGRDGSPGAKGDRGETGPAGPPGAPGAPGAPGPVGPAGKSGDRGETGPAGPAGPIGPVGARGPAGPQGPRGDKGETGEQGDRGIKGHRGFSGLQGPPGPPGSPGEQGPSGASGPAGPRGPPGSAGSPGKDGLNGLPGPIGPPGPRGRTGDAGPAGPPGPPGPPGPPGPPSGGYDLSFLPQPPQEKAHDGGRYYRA
Sequence of UniProt P02453 (P02465 80-1117, chain 2 of 2, further chain): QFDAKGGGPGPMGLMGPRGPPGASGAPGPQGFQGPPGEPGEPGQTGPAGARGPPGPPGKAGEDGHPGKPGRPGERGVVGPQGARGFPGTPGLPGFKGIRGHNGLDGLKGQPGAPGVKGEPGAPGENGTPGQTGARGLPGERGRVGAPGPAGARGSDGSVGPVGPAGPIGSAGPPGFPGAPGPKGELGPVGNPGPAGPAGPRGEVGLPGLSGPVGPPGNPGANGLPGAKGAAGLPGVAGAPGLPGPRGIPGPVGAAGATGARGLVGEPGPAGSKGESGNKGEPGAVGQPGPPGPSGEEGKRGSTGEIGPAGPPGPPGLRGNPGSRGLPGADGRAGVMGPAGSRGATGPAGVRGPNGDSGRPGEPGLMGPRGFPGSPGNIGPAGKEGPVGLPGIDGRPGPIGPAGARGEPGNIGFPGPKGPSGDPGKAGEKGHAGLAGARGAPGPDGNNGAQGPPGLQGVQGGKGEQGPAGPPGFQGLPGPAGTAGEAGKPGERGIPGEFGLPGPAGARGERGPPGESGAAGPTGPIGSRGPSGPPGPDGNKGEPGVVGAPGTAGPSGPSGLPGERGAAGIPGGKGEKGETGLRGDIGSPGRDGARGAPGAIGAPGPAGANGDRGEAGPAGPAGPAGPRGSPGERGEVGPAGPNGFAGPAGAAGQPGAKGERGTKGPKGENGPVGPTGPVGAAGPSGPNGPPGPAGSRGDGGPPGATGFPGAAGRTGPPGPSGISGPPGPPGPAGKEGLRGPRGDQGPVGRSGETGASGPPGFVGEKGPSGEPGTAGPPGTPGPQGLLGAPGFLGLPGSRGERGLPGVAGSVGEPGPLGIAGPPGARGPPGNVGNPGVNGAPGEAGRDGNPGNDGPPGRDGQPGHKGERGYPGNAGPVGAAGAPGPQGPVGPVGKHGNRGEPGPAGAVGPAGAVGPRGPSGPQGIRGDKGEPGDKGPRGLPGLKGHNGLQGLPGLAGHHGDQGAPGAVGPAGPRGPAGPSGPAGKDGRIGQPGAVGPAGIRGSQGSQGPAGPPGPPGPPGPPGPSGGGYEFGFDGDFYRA

With “Fc-tagged extracellular domain of human DDR1 (dimeric DDR1-Fc) (from UniProt Q08345 21-417) (Fc fusion)”, the IC50 amounted to 7.85 nM.

As to “Antibody (anti-Fc) induced oligomers of DDR1-Fc (from UniProt Q08345 21-417) (complex)”, the 50% inhibitory concentration (IC50) was 2.5 nM.
